Results: patent US12281340B2, “Method of producing N-acyl-amino group-containing compound” (AJINOMOTO CO., INC., priority 2018, dated 2025)

Experiments:
[1] = Synthesis of N-caprinoyl-amino acid derivative, N-caprinoyl-D-amino acid and N-caprinoyl-peptide using purified acylamino acid synthetase, UPLC-MS detection; format: biochemical; design: key: +: Detected; −: Not detected; conditions: +ATP
Procedure, shortened: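 Purified enzyme (50 μg/mL) was incubated with 5 mM sodium caprate, 5 mM amino acid derivative, D-amino acid or peptide, 10 mM ATP, 10 mM MgCl2 and 1 mM DTT in 50 mM Tris-HCl, pH 8.0, for 24 h at 25 °C. After acidic methanol stop, UPLC-MS looked for the mass of the N-caprinoyl product.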

[2] = Quantification of produced N-acylamino acid (UV 210 nm) using purified acylamino acid synthetase; format: biochemical; conditions: 5 mM L-Asp, 5 mM sodium fatty acid, 200 μg/mL enzyme, 25° C., 24 hours
Method: 0.1 mL of a reaction solution containing 50 mM Tris-HCl, 5 mM amino acid, 5 mM sodium fatty acid, 10 mM ATP, 10 mM MgCl2, 1 mM DTT, 200 μg/mL of the purified enzyme, pH 8.0 was incubated at 25° C. for 24 hours. As amino acids, L-Asp was used in AtGH3-6, OsGH3-8, AtGH3-5, AtGH3-12, and Gly or L-Ala was used in CfHP. After completion of the reaction, 0.4 mL of the reaction stop solution (1% (v/v) phosphoric acid, 75% (v/v) methanol) was added, and the mixture was filtrated through the filter followed by being subjected to the UPLC-MS analysis to quantify the produced N-acylamino acid by detection at UV 210 nm. The condition for the UPLC-MS analysis is as descried in Example 2. As a result of the analysis, 3.9 mM of Nα-capryloyl-L-aspartic acid, 4.5 mM of Nα-caprinoyl-L-aspartic acid and 2.2 mM of Nα-lauroyl-L-aspartic acid were detected when AtGH3-6 was used; 4.3 mM of Nα-capryloyl-L-aspartic acid, 4.6 mM of Nα-caprinoyl-L-aspartic acid and 3.5 mM of Nα-lauroyl-L-aspartic acid were detected when OsGH3-8 was used; 4.1 mM of Nα-capryloyl-L-aspartic acid, 4.6 mM of Nα-caprinoyl-L-aspartic acid and 2.5 mM of Nα-lauroyl-L-aspartic acid were detected when AtGH3-5 was used; 1.6 mM of Nα-capryloyl-L-aspartic acid, 0.6 mM of Nα-caprinoyl-L-aspartic acid and 0.2 mM of Nα-lauroyl-L-aspartic acid were detected when AtGH3-12 was used; 4.5 mM of Nα-capryloylglycine, 4.6 mM of Nα-caprinoylglycine, 0.1 mM of Nα-lauroylglycine, 3.1 mM of Nα-capryloyl-L-alanine, 3.6 mM of Nα-caprinoyl-L-alanine and 0.4 mM of Nα-lauroyl-L-alanine were detected when CfHP was used.

[3] = substrates Carnosine and sodium caprate
[4] = substrates D-Ala and sodium caprate
[5] = substrates D-Asp and sodium caprate
[6] = substrates D-Cys and sodium caprate
[7] = substrates D-Glu and sodium caprate
[8] = substrates D-Ile and sodium caprate
[9] = substrates D-Lys and sodium caprate
[10] = substrates L-Asp-L-Phe and sodium caprate
[11] = substrates L-Gly-L-Gly and sodium caprate
[12] = substrates Sarcosine and sodium caprate
[13] = substrates Taurine and sodium caprate

| Molecule | signal of molecular weight corresponding to N-caprinoyl compound [1, 3] | signal of molecular weight corresponding to N-caprinoyl compound [1, 4] | signal of molecular weight corresponding to N-caprinoyl compound [1, 5] | signal of molecular weight corresponding to N-caprinoyl compound [1, 6] | signal of molecular weight corresponding to N-caprinoyl compound [1, 7] | signal of molecular weight corresponding to N-caprinoyl compound [1, 8] | signal of molecular weight corresponding to N-caprinoyl compound [1, 9] | signal of molecular weight corresponding to N-caprinoyl compound [1, 10] | signal of molecular weight corresponding to N-caprinoyl compound [1, 11] | signal of molecular weight corresponding to N-caprinoyl compound [1, 12] | signal of molecular weight corresponding to N-caprinoyl compound [1, 13] | Nα-caprinoyl-L-aspartic acid detected [2] | Nα-capryloyl-L-aspartic acid detected [2] | Nα-lauroyl-L-aspartic acid detected [2] |
| --- | --- | --- | --- | --- | --- | --- | --- | --- | --- | --- | --- | --- | --- | --- |
| OsGH3-8: probable indole-3-acetic acid-amido synthetase GH3.8 from Oryza sativa, expressed in E. coli with N-terminal His-tag (protein, listed as Oryza sativa, N-terminal His-tag, probable indole-3-acetic acid-amido synthetase GH3.8 from Oryza sativa, expressed in E. coli with N-terminal His-tag) MAVMTDVSTTGTALRTPAAGAVKEGDVEKLRFIDEMTTNVDAVQERVLGEILGRNAGTEYLTKCGLDGATDRAAFRAKVPVVSYDDLQPYIQRIANGDRSPILSTHPVSEFLTSSGTSAGERKLMPTIMDELDRRQLLYSLLMPVMNLYVPGLDKGKGLYFLFVKSETKTPGGLTARPVLTSYYKSDHFKNRPYDPYHNYTSPTAAILCADAFQSMYAQMVCGLCQRNDVLRLGAVFASGLLRAIRFLQLNWEQLADDIESGELTPRVTDPSVREAVAAILLPDPELAKLIRAECSKGDWAGIITRVWPNTKYLDVIVTGAMAQYIPTLEFYSGGLPMACTMYASSECYFGLNLRPMCDPSEVSYTIMPNMGYFEFLPVDETGAASGDATQLVDLARVEVGREYELVITTYAGLNRYRVGDVLRVTGFHNAAPQFRFVRRKNVLLSIESDKTDEAELQRAVERASALLRPHGASVVEYTSQACTKRIPGHYVIYWELLTKGAGATVVDADTLGRCCLEMEEALNTVYRQSRVADGSIGPLEIRVVRPGTFEELMDYAISRGASINQYKVPRCVTFPPIVELLDSRVVSSHFSPALPHWTPARRSE | + | + | + | + | + | + | + | + | + | + | + | 4.6 mM | 4.3 mM | 3.5 mM |
| AtGH3-5: indole-3-acetic acid-amido synthetase GH3.5 from Arabidopsis thaliana, His-tagged (protein, listed as Arabidopsis thaliana, His-tag, indole-3-acetic acid-amido synthetase GH3.5 from Arabidopsis thaliana, His-tagged) MPEAPKKESLEVFDLTLDQKNKQKLQLIEELTSNADQVQRQVLEEILTRNADVEYLRRHDLNGRTDRETFKNIMPVITYEDIEPEINRIANGDKSPILSSKPISEFLTSSGTSGGERKLMPTIEEELDRRSLLYSLLMPVMSQFVPGLENGKGMYFLFIKSESKTPGGLPARPVLTSYYKSSHFKERPYDPYTNYTSPNETILCSDSYQSMYSQMLCGLCQHQEVLRVGAVFASGFIRAIKFLEKHWIELVRDIRTGTLSSLITDPSVREAVAKILKPSPKLADFVEFECKKSSWQGIITRLWPNTKYVDVIVTGTMSQYIPTLDYYSNGLPLVCTMYASSECYFGVNLRPLCKPSEVSYTLIPSMAYFEFLPVHRNNGVTNSINLPKALTEKEQQELVDLVDVKLGQEYELVVTTYAGLCRYRVGDLLRVTGFKNKAPQFSFICRKNVVLSIDSDKTDEVELQNAVKNAVTHLVPFDASLSEYTSYADTSSIPGHYVLFWELCLDGNTPIPPSVFEDCCLAVEESFNTVYRQGRVSDKSIGPLEIKIVEPGTFDKLMDYAISLGASINQYKTPRCVKFAPIIELLNSRVVDSYFSPKCPKWVPGHKQWGSN | + | + | + | + | + | + | + | + | + | + | + | 4.6 mM | 4.1 mM | 2.5 mM |
| AtGH3-12: 4-substituted benzoates-glutamate ligase GH3.12 from Arabidopsis thaliana, His-tagged (protein, listed as Arabidopsis thaliana, His-tag, 4-substituted benzoates-glutamate ligase GH3.12 from Arabidopsis thaliana, His-tagged) MKPIFDINETFEKQLKDLTSNVKSIQDNLLEEIITPNTKTEYLQRFLIDRFDKELFKKNVPIVSYEDIKPYLDRVVNGESSDVISARTITGFLLSSGTSGGAQKMMPWNNKYLDNLTFIYDLRMQVITKHVKGVEEGKGMMFLFTKQESMTPSGLPARVATSSYFKSDYFKNRPSNWYYSYTSPDEVILCPNNTESLYCHLLCGLVQRDEVVRTGSIFASVMVRAIEVLKNSWEELCSNIRSGHLSNWVTDLGCQNSVSLVLGGPRPELADTIEEICNQNSWKGIVKRLWPNTKYIETVVTGSMGQYVPMLNYYCNDLPLVSTTYGSSETTFGINLDPLCKPEDVSYTFMPNMSYFEFIPMDGGDKNDVVDLEDVKLGCTYEPVVTNFAGLYRMRVGDIVLVTGFYNNAPQFKFVRRENVVLSIDSDKTNEEDLFKAVSQAKLVLESSGLDLKDFTSYADTSTFPGHYVVYLEVDTKEGEEKETAQFELDEEALSTCCLVMEESLDNVYKRCRFKDGSIGPLEIRVVRQGTFDSLMDFFISQGASTGQYKTPRCIKSGKALQVLETCVVAKFFSI | + | + | + | − | + | + | + | + | + | + | + | 0.6 mM | 1.6 mM | 0.2 mM |
